Values quoted from earlier work, collected in publication PMC11939847.

Molecular target: BRD4 ET (Homo sapiens) (UniProt O60885)
Assay: SPR

Question: With LKIRL peptide as the substance, how does the Kd read?
Answer: The Kd was 0.145 µM.
